Results taken from patent publication US20240262922A1 (Merck KGaA, published 2024).
Where two headings read alike, the source gives them in different places.

Legend:
[1] = target: T1, AVI-GST-His6-hOX40L (human, UniProt P23510 51-183); test: cell-based or functional assay
T1 sequence: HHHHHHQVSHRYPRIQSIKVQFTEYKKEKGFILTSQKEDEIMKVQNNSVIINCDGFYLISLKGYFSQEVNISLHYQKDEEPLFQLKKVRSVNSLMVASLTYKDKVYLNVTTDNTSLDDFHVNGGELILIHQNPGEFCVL

[2] = target: T2, recombinant human OX40L protein (R&D Systems, cat. #1054-OX) (human, UniProt P23510 51-183); test: cell-based or functional assay
T2 sequence: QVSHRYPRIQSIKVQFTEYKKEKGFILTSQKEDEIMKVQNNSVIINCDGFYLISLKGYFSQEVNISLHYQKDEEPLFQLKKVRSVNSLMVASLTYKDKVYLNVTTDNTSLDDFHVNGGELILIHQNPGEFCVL

[3] = target: T2, recombinant human OX40L protein (R&D …); test: SPR steady state, Biacore T200; OX40L immobilised on CM5, antibody in solution
Protocol: (§1) Recombinant OX40L proteins (human OX40L protein, R&D systems, cat. #1054-OX; cynomolgus monkey OX40L, Novoprotein cat. #CP72) were immobilized onto Biacore CM5 sensor chips and anti-OX40L antibodies were bound to this surface at a range of concentrations. The response at steady state was measured with a Biacore T200 instrument (GE Healthcare) and plotted against the concentration of antibody and fit to a 1:1 binding model. The steady state KD was determined as the antibody concentration at a response equal to half the maximal response (Rₘₐₓ).

[4] = target: T1, AVI-GST-His6-hOX40L; test: cell-based or functional assay; remark: listed apart in the source
[5] = target: T2, recombinant human OX40L protein (R&D …); test: SPR steady state affinity to human OX40L
Protocol: as §1

[6] = target: T2, recombinant human OX40L protein (R&D …); test: SPR steady state, Biacore T200; OX40L immobilised on CM5, antibody in solution; remark: listed apart in the source
Protocol: as §1
Steady state affinity assay was performed as described in section 1.1.7 of Example 1.

[7] = target: T1, AVI-GST-His6-hOX40L; test: cell-based or functional assay; remark: listed apart in the source
[8] = target: T2, recombinant human OX40L protein (R&D …); test: cell-based or functional assay; remark: listed apart in the source
[9] = target: T3, mouse OX40L (mouse, UniProt P43488 51-198, limits assumed); test: flow cytometry on CHO-S cells / ELISA on recombinant protein (sentence does not say which)
T3 sequence: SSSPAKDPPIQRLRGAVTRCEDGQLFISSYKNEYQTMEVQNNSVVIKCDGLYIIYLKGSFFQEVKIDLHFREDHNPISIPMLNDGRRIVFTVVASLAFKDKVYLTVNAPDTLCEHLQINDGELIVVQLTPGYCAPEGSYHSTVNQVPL

[10] = target: T4, recombinant cynomolgus monkey OX40L (Novoprotein cat. #CP72) (cynomolgus monkey, UniProt P23510 51-183 (human entry), limits assumed); test: flow cytometry on CHO-S-OX40L cells / ELISA on recombinant OX40L (sentence does not say which)
T4 construct: Bought protein; also called cynomolgus OX40L
T4 chain: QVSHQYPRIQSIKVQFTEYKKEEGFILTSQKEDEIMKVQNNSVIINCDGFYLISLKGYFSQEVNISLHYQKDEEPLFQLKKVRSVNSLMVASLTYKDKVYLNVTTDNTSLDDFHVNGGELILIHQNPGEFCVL

[11] = target: T1, AVI-GST-His6-hOX40L; test: cell-based or functional assay; remark: listed apart in the source
[12] = target: T1, AVI-GST-His6-hOX40L; test: cell-based or functional assay; remark: listed apart in the source
[13] = target: T1, AVI-GST-His6-hOX40L; test: cell-based or functional assay; remark: listed apart in the source
[14] = target: T2, recombinant human OX40L protein (R&D …); test: cell-based or functional assay; remark: listed apart in the source
[15] = target: T2, recombinant human OX40L protein (R&D …); test: SPR steady state, Biacore T200; OX40L immobilised on CM5, FcFab in solution
Protocol: as §1
As with the IgG clones, binding affinity to human OX40L was determined for all twelve FcFabs using steady state affinity assay as described in section 1.1.7 of Example 1. […]

Row | Binder | OX40L neutralization/OX40-HEK Reporter IC50 [1] [nM] | Primary T cell activation assay IC50 [2] [nM] | Kd [3] [nM] | IC50 (read off the curve) [4] [nM] | Kd [5] [nM] | Kd [6] [nM] | OX40L neutralization/OX40-HEK Reporter IC50 [7] [nM] | Primary T cell activation assay IC50 [8] [nM] | binding result [9] | binding result [10] | IC50 (read off the curve) [11] [nM] | IC50 (read off the curve) [12] [nM] | OX40L neutralization/OX40-HEK Reporter IC50 [13] [nM] | Primary T cell activation assay IC50 [14] [nM] | Kd [15] [nM]
1 | Ref1_Anti-OX40L (US Pat. No. 9,139,653) (antibody, V domains shown) VH: EVQLVESGGGLVQPGGSLRLSCAASGFTFSNYAMNWVRQAPGKGLEWVSTISGSGGATRYADSVKGRFTISRDNSRNTVYLQMNSLRVEDTAVFYCTKDRLIMATVRGPYYYGMDVWGQGTTVTVSS VL: DIQMTQSPSSLSASVGDRVTITCRASQSISSYLNWYQQKPGKAPNLLIYAASSLQSGVPSRFSGSGSETDFTLTISSLQPEDFATYYCQQSHSVSFTFGPGTKVDIK | 7.3 | 5.7 | 31.9 | ~5 | 31.9 | – | – | – | – | – | – | – | – | – | –
2 | 95B06 (IgG) (antibody) heavy: not shown light: DMQMTQSPSSLSASVGDRVTITCRASQGIRNDLDWYQQKPGKVPKRLIHAASSLQSGVPSRFSGSGSGTEFTLTISSLQPEDFVTYYCLQHNTYPWTFGQGTKLEIKRTVAAPSVFIFPPSDEQLKSGTASVVCLLNNFYPREAKVQWKVDNALQSGNSQESVTEQDSKDSTYSLSSTLTLSKADYEKHKVYACEVTHQGLSSPVTKSFNRGEC | – | – | – | – | – | 42.4 | 3.7 | 7.4 | no binding | binds | – | – | – | – | –
3 | 97G07 (IgG) (antibody) heavy: not shown light: YYELTQPLSVSVALGQTARIPCGGNNIENKNVHWYQQKPGQAPVLVIYRDSNRPSGIPERFSGSNSGNTATLSINRAQAGDEADYYCQVWDSNTVIFGGGTKVTVLGQPKAAPSVTLFPPSSEELQANKATLVCLISDFYPGAVTVAWKADSSPVKAGVETTTPSKQSNNKYAASSYLSLTPEQWKSHKSYSCQVTHEGSTVEKTVAPTECS | – | – | – | – | – | 16.6 | 7.5 | 16.7 | no binding | binds | ~9 | – | – | – | –
4 | 97G07 (FcFab) (antibody, IgG1, also called 97G07(2); anti-OX40L FcFab antibody 97G07) heavy: EPKSSDKTHTCPPCPAPPVAGPSVFLFPPKPKDTLMISRTPEVTCVVVDVSHEDPEVKFNWYVDGVEVHNAKTKPREEQYNSTYRVVSVLTVLHQDWLNGKEYKCAVSNKALPSSIEKTISKAKGQPREPQVYTLPPSREEMTKNQVSLTCLVKGFYPSDIAVEWESNGQPENNYKTTPPVLDSDGSFFLYSKLTVDKSRWQQGNVFSCSVMHEALHNHYTQKSLSLSPGAGGGGSGGGGSGGGGSQLQLQESGPGLVKPSETLSLTCTVSGGSISSSSYYWGWIRQPPGKGLEWIGGIGSVDYSGNTYYKPSLKSRVTISVDTSKNQFSLKLSTVTAADTAVYHCARHRGIYFFDYWGQGTLVTVSSASTKGPSVFPLAPSSKSTSGGTAALGCLVKDYFPEPVTVSWNSGALTSGVHTFPAVLQSSGLYSLSSVVTVPSSSLGTQTYICNVNHKPSNTKVDKRVEPKSC light: YYELTQPLSVSVALGQTARIPCGGNNIENKNVHWYQQKPGQAPVLVIYRDSNRPSGIPERFSGSNSGNTATLSINRAQAGDEADYYCQVWDSNTVIFGGGTKVTVLGQPKAAPSVTLFPPSSEELQANKATLVCLISDFYPGAVTVAWKADSSPVKAGVETTTPSKQSNNKYAASSYLSLTPEQWKSHKSYSCQVTHEGSTVEKTVAPTECS | – | – | – | – | – | – | – | – | – | – | – | ~6 | 6.2 | 4.6 | 27.9
5 | 67B06 (IgG) (antibody, also called 67B06 (IgG format)) heavy: not shown light: SYELTQPLSVSVALGQTARMTCGGSDIENKNVHWYQQKPGQAPVLVIHRDNNRPSGIPERFSGSNSGNTATLTISRAQAGDEADYYCQVRDSNIVVFGGGTKLTVLGQPKAAPSVTLFPPSSEELQANKATLVCLISDFYPGAVTVAWKADSSPVKAGVETTTPSKQSNNKYAASSYLSLTPEQWKSHKSYSCQVTHEGSTVEKTVAPTECS | – | – | – | – | – | 12.7 | 5.2 | 20.9 | no binding | binds | ~5 | – | – | – | –
6 | 67B06 (FcFab) (antibody) heavy: EPKSSDKTHTCPPCPAPPVAGPSVFLFPPKPKDTLMISRTPEVTCVVVDVSHEDPEVKFNWYVDGVEVHNAKTKPREEQYNSTYRVVSVLTVLHQDWLNGKEYKCAVSNKALPSSIEKTISKAKGQPREPQVYTLPPSREEMTKNQVSLTCLVKGFYPSDIAVEWESNGQPENNYKTTPPVLDSDGSFFLYSKLTVDKSRWQQGNVFSCSVMHEALHNHYTQKSLSLSPGAGGGGSGGGGSGGGGSQLQLQESGPGLVKPSETLSLTCSVSGGSISTSSYYWGWIRQPPGKGLEWSGSIYYSGSTYYRPSLQGRATISVDTSKNQFSLKLTSVTAADTAVYYCARHRGSYFFDIWGLGTLVTVSSASTKGPSVFPLAPSSKSTSGGTAALGCLVKDYFPEPVTVSWNSGALTSGVHTFPAVLQSSGLYSLSSVVTVPSSSLGTQTYICNVNHKPSNTKVDKRVEPKSC light: SYELTQPLSVSVALGQTARMTCGGSDIENKNVHWYQQKPGQAPVLVIHRDNNRPSGIPERFSGSNSGNTATLTISRAQAGDEADYYCQVRDSNIVVFGGGTKLTVLGQPKAAPSVTLFPPSSEELQANKATLVCLISDFYPGAVTVAWKADSSPVKAGVETTTPSKQSNNKYAASSYLSLTPEQWKSHKSYSCQVTHEGSTVEKTVAPTECS | – | – | – | – | – | – | – | – | – | – | – | ~6 | 5.5 | 7.2 | 20.3
7 | Ref2_Anti_OX40L (antibody, human IgG1, kappa, V domains shown) VH: EVQLLESGGGLVQPGGSLRLSCAASGFTFNSYAMSWVRQAPGKGLEWVSIISGSGGFTYYADSVKGRFTISRDNSRTTLYLQMNSLRAEDTAVYYCAKDRLVAPGTFDYWGQGALVTVSS VL: DIQMTQSPSSLSASVGDRVTITCRASQGISSWLAWYQQKPEKAPKSLIYAASSLQSGVPSRFSGSGSGTDFTLTISSLQPEDFATYYCQQYNSYPYTFGQGTKLEIKR | 6.6 | 9.3 | 15 | ~4 | 15 | – | – | – | – | – | ~3 | ~6 | – | – | –
